Results reported in the NTF2 design screens of Basanta et al. (2020).

Test: protease stability score; higher = more stable; yeast display proteolysis, trypsin and chymotrypsin;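 further: log10 excess protease needed over predicted unfolded state with 0 meaning unfolded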

Sequence	protease stability score
DEDDQRRKAETLVRQISTGNPDDLKKMVDPNVKVKVGDKEYHGREEMAKDIKHIEDAVDHLEVKSVDAHNGRIDIVIVMHINGTRVHMRVEFQLNNGKVKSAERRYTDQDQKNTFER	-0.39
DEQWLNRLNRVFEHNNEEDLIKNMDPNVRVEIGDKRVRGRHKVKEALDRLKEEADHLQLKSVHVQGDKVSATMEMVVNGKHVQMTVTIEFTNGRIKNQRYKATDEKDKKVINDIMG	0.34
DEEEAKEMMEKWMKIVEKGDSDKAQKIYKPNVVWENVDKKTQGVKQVKEMVKRIKDQGMEFQVRRAEVEGNTVEVQYDVRIGNTTVTFKVQVKAEGGRIDEVRVELDETAVKQLKKG	0.31
DDRTKMQELLDKLREAAEDGDRRKVHQLFDENARFEIGDTEFHGMTSAAKRLAEEWKRHDHVQFSVREIRVEPGRFVVHMQERNSHNGKSDSKNVVMTVTKSNGQIRATKVKVR	0.387
DEKRLKELLEHVFKQVMNGNEEEVLKHGKPDVQYEYLTKRYEGEDAMRVVIKKIKRIGAEVQVKRREVHGNTMRADFDYHKGDQTVRTTAEAKYEGDQVKEFRVKVTEEHKQVIHQG	0.104
EEQAVEVMNRYIRALQTGSKQDLRDNMDPNVKAIYGDSVIHGREEIARHLVKTMKDIRVENDVRDMRFDGDKIELRAKWVFEHDGRPRTNKYVVHAVAHDGKIKHINLQEDQ	-0.058
DERTNTEMLKRLQHALQKNDPNEVRKLFDKDVQVQIGDKTLSGREQLLTEAEQRRKKIDDIEVTDMKSNPDHAVLSVVIKHNGRNRKVIYYIRWSNGKVRKVEERES	1.5
DDRDEEKLQEQRKIHENNDEDRRKELVDPNVKFDVGDRHYHGRETNSKKFVDENREMRVEVDIKRVTNDEDHLRFEAHVVIRNNGQPDTKKVRLEQRLDGDKLKMERQEDKR	0.276
DEEELKHLMKVQTTGDPDKYEEMADKDVKAKIGDETYHGRETVLTQLRRMLTQIDHLEVKNVDTQGDKVNLRAVANYNGQELDVIYVLVVHNGRVDNMEIDARDEKVEDQLRQAMS	-0.348
DEEASKQLEEYLRALQTGDSHRVQQLLDPNAKARVGDHTYHGHKEILDWLNKLNEKMRFSIERLSVSVRGDQVEFSFKFDATFNGRPFHASQTMQINVHNGRLKKLTIQLDPEQLDTQRS	-0.088
DKSANHQIEQLMRNINEGDKDKVREQMDPNVEVHVGDKEVHGREQYAREVRKEQEEMRVQFKVEHVKDRNGQAELRIQVQLDHNGKPETRVQHFVAVLDNGRVKSATAKIDK	-0.084
DESKQKQFEHFLEVVKTGNEEDLRKNMDKDVRVQIGDKQVHGRENIASELVRRQKEIKLHIRDMRIDVHNGRVQASVDVVDNINGKPTRYSYRFEYNIENGKLKSARIHIDPDQVRKVEE	1.03
DEDQMEDLKRKWEKNDWRRFARNADPNVRVEVGDRRYHGRTDALRAMKIIEDTADRIQIDRVKSTNGKVTVDLVLVVNGNKIRARFEAVVHNGQVKHFTMKFRDKDDKRRFNEAMS	0.582
DHDLLTKIKTILELIKTGNFEEVRKNFDPNVDVHVGDKTIHGRERWAKELDKEVRELRWDIKIKRVKDRGDRAHFDMEATFEVNGRPANFRANMVVHMHNGRVKHMNIKIPEEDLKRQKS	0.823
DETKVKKLVVHVAQVLMSGQVDEAQKFLNPDVEFHAGNVTLHGPEQVLEYYKKIQKRGVEFHVKEAEVHGNTVEVKYDVKFDGTEQTLKFKAEVKDTVVEKAELEIDEDYVRAVQKG	1.11
DEEDMNTLQKMNEKNDEEKLQKLADEDARFVVGDKTLTGHHEFQTFVHRFVKHVDHLQVDSVEVQGNQVDLDVRAEINGRHYRFQIVIIIQNGRLKEYRLQATDEDEEEKFKKMIE	1.25
DEEDLKTAHRRQRTNDFDRIRNKADKDAHVQVGDTQVHGREEVKKFMTLLKKRVDHVEIHDIEKKPGRLVVELRMNVNGQEIDLVVMFQFKNGSLKHMRFKVRDEDDKRKLEKALS	0.432
DDEANKTAHELVRILQTGDDESFEKMVDPNVKVVIGDRTFKGSSEVRDYLRKRKENIHEDLQVKHVSASGNKAHLDLRFRNDKNGRPQERRLELDVVFHNGKVKNVVYHWDG	1.39
DDSKERSNLEKFAKALETGDPKKLQQQLDPDARMQIGDKTYHGRHDMEKWLEEFNRQADHYQIDTFDQHNGTLNIQMRMNINGNTVSMTVNVVAKNGRVKHVTFDPDVWRQLES	0.809
DETNLKKVLDVLKDNDEKKLEELADEDAKNDIGNFDYRGRRQFEEAMRHRRKMIDSLEVKSVRADGDKAEIDMSAVINGREVKASQMVKVHNGRIKSISVRFTDPDKEREADKKAQ	0.023
DEEQHSVADQFNRDLRQGDPDTIRKLLDKDADLRVGDKDLHGRENLIDHMRKMHKKMQVNVDVDSVEDHNGKVIIQATVVEHHNGKPKTYQVDARLHADNGKIKNADFQETS	-0.115
DHEVAKTMMEEWQKALENGDDKKLKELYDPDGEWEADDEQDQGTEVIEKLMEKVKKQGLKFQVRKAKVEGDKFTVVYDLHVGNKTATFEVEVHVEGGRIKKVKAKADEEAKKLITEG	1.98
DERKEMQKHFDRFVTALRENNPDQLREMADPDAKVRIGDKTLHGRDEVVHYLQLLAERADHISFDVKQFDVHNGVAHVDLRMRFTVNGQERHKDMIFVLNEVNGTVVIVQVQDK	1.72
DENEMVQLARKLARVLETNDSDKMREMIPPDASIEIGDRRLHGRESVEHLMKDMHKRIDHLTVDSVNVDNGRVHISARAKHNGRTRRVQFYALIHNGRIHVISFRTK	1.34
DEQLRDRVTQLFKVWQTGDPKKVSEMFDKDARLEYGDKTVHGMEEARHQQDTRRREARLSLDIRSINVQGNQVEIDVRIEEDENGKPDTKQVTIRIRARNGRIHNAKLQDDG	0.1

Sequence	protease stability score
DEENAERLKKIFRAVQENDSKQIERNFDPNAEVTYGDKTVTGREEQSREYHKILHEIRVRIQIKHVKVHNGRLSIHAKMDREHNGEPDDATLIVEAHFHNGKATEQQNDVHK	0.44
DEEKHDDFARKLVRAVQSNDFRQQEKMFRQDVRMRVGDKEVHGREQFRDWLRTLDEEVDRYEVKSVTAQGDKVKIVAVFRINGKQFTLTVTIHVSNGKAVNMRINPDQQRQQER	0.104
DEQKIKELLYKAAEAYINGNDELVRKLLKDDGKLEAGDYEYRGVDQVVKVAQDFKKYGVELEIKNYKYDGDRLDVEVELHLGGTTWKFTVTVQADGGKVDKVQFHFSEEARKRIQDG	0.447
DTHAVEVWRRVLRAKETGDEKTLEKNFDPNARFQVGDKTLHGMEQQVTENKRERDDLRVHVEIKEVKDQGDKAFVDMVMTAEVNGQPYRIRVEVVAVVRNGKIKELVINMDPRQQEQLDS	0.28
DESVLEMAERIIEAFNNGDPERAVNQADPNVKITVGDKSITGREDLRRELEKQLKEQEQHIQVLRVTDHNGQAQMDIRMTSEKNGNPDHRRATVQFHATNGKLQTMRVDQRG	-0.599
DDQRLRELNDTIAENIQSGDESKLSQLADPNVRLQIGDKEWHGREEMQKAWDELRRSADHIEIRSITAKGDHAVINAVLHHNGRTSQVRFDFSFHNGRIVRVSMHET	1.48
DEDDVRRVHEMIRAEETNNEHQVKDLMDENARMVVGDQEITGMDHILKFIRETNKEIDIELRLRDVKVSNGNVHVTARVRFTVNGKPVDRSAKMEVQVENGRIQDVQKRFPTEWKRERHK	-0.03
DETAQNLIKELNRAWNENNENQVAELMDPNAKLQIGNKVLTGRKQRMEEIRSQTHSMRLDYKYEDVKAKNGKVTANLRYVADVNGRPVDVTVSVKADVHNGVIVRLEVRLPPDVEEELKR	0.219
DEEDQKELADEMVKVLETGDEDRFSQLLDKDVNINVGDQTYSGSEQAVKWFRELLDNVDSFKFDRVRVNGDQLQIHAILDVNGHDIHVVFQVQFHNGRAQHLNMRYTDDEEKKRFDS	1.34
DEELDKRIVDALHAIQKGDERRLRQLFDKNVSFKVGDEEYHGMENYAKDQKRRRDKIRVQLQSVDAKHQGDRAHVDVQRELDINGRPRTVRMIVVAHAKNGRVKNMSMNVDPKEIRELDT	-0.159
DDREVDKVEELLKTGDFLKMANRADKNARMQIGDKEYRGREHVQDAAKRLDRQVDTEKVTDLRTDGEKVLVHYIQHFDGQNLEVDVEFHFHNGRLQEVVFHVRDPKKQKEFDKRVG	-0.235
DEERELEELMQRLISLMKNGNPKEVAKLLDPNVRVQYGDKRLHGREQAIRRIESLRRHVDHVTMSIESLQVEGDKVSARIEAVYDVNGTQDQRTIELELRQVNGKLRFKHITFK	0.017
DDEESEKFAEDAMRILQTGDEEKFVRQADPNARVVYGEKTVHGREEAKKEVKTFRDRVDKIDVHHVEVTNGKAFLDATFRFDGRDRHYVVEIVRHNGRIKQMVMKKK	-0.166
EERANDAARRFLEAIDRNNPDEAVKNFDPNARFRYGDKTVTGRTEVQELLEHLLKQMRITIQSVRVDARGDKVTVHLTVVVDVNGQPERHEMTVIANIHNGRIKEMEVRVDPDEQRERKR	0.575
DEHVIKNFLRVVRTNNEDSFVKMADKDAEITIGDKRYHGREDVHKAAKQRKDAFDEVSIVDYRIDGDKIKVRQSATVNGKKLDFEYTMVLHNGRVRTLDMKARDEEMERRLREIID	0.023
DEERAQHLVDQIFRAFKRGDPEQFKKMFDPNARMHVGDQRYHGREDIIKFLQEIREQADTITLRKVTVHNGQADIIVDVQVDGRRVRIQILINYHNGKVKSLKIHYTDEELQKEIES	1.56
DQEVAETMMERWQKAVQKGDPKEVQEVYDPNVTWKDVDEEHQGKEQVVKQMRKVQKQGIEFQIRRAEVEGDRAQAVYDVKLGNLTVTFTVEMTVRGGRVQEVRVEMDEEAKKLVKKG	0.136
DEDKQAKEMMKRFVHMMQEGDPSEAKRLFDKNARLVVGDKRFHGQHEASKFAEEIKKRYDKVHVELKDLKVHGDKVDAKAKVVLNDNGQKDTHEVVITALFHNGRIKVQEVRVQ	0.983
DDEHVRRLAEQLFKAMQSGDPDTVESLFDKNARVQIGDKSVSGHEDISKIFHDNWKRVDEFQLRTYDAHNGRVQLRFELHINGRRADITLSIEFRNGKIQEAVFEFRDESVRQQFRT	1.29
DEEHVRRQAKQVNDILTTGDENKMLEMAPPDAKLEYGDRHVTGREHIRRMVHEQKKQIDDFKIDTYSVSGNEVRVRFVARVNGQEADFEITIVFKNGRIHEIKVDPDALQQMRK	0.256
DEDDLRRLAEDFVRVLKTGDEDRLSELFDPNAKVSVGDHEYHGSENIVRALVEFARRVDELEVNSITIENGRVKIDAFATVNGKRVSVIIEIQYHNGRAKYVEFKYTSEEENRRFKN	0.466
DEENQRLAEEFIRAFEKGNPDQAATMADPNVKIDIGEKRIHGHEELKKWIEELQRQMRVEVEHYEVEADGDKVIARLIFRQEHNGKPQEDKEQVNIRFHNGRAKSVTIRSTK	0.028
DERKRAKKALDDLKHAMHSNDPDKQKELMDENVELKYGDRHVNGREQANQHAEEHFERADHLDQKIQTWDIHNGKVSVTFTMTIEFNGRRENIQVQVTFDTVDGRLRIRTAREK	0.525
DEEDLREIVEEMRTGDEDKFNKNLDENVKVEIGDKTWQGREQAQKMHADVMRRADNVRLKEYEVHNGHVDADLTVEINGRSVEYVMKIEIDNGTMKRIEVTVRDETQEDIQRKVLE	0.309
DEEDVKRAERFQKHYQQGNTEEMRKLLDKNARIEVGDKTLHGRDDAKDKLRKNLDNWRFSMDSVDNKLKNGQVRIDIKYRMVINGRPFSITYKLNVKFENGKVQFMEDRISEDDQRHLEK	0.582
